Measurements: patent US8620595B2, “Methods for determining the retention of peptides in reverse phase chromatography using linear solvent strength theory” (University of Manitoba, priority 2010, dated 2013)
“And” between values parts separate entries of the source, which are not always exact repeats. Equal entries are not always repeated.

experiment: Determination of S from retention time shift Δ relative to P3 at two gradient slopes, nano-RP-HPLC MS of spiked tryptic digest; format: physicochemical; conditions: experimental S value, LC-MS runs of model peptide mixture
Method: Proteins and protein digestion. Tryptic digests of two different protein mixtures were utilized. The “test peptide mixture” contained human proteins: albumin, transferrin, fibrinogen. The “model peptide mixture” contained bovine proteins: albumin, transferrin, fibrinogen, catalase. Equimolar mixtures of the proteins were prepared, reduced with DTT, alkylated with iodoacetamide and digested with sequencing-grade modified trypsin (Promega, Madison, Wis.). Prior to nano-LC MS/MS analysis, mixtures were diluted with buffer A (0.1% formic acid in water) and spiked with the 6 standard peptides P1-P6^24 for test mixture and the set of 11 model peptides (described elsewhere^23) for a model mixture. All dilutions were performed to provide an injection of ˜100 fmole of each component into the nanoRP-HPLC MS system.
Chromatography. All chromatographic experiments were conducted at a controlled temperature of 22-23° C. For isocratic measurement of the slope values, a micro-Agilent 1100 Series system (Agilent Technologies, Wilmington, Del.), was used with a 1 mm×100 mm 5 μm Luna C18(2) (Phenomenex, Torrance, Calif.) column and a UV detector operated at 214 nm. Both eluents A (water) and B (acetonitrile) contained 0.1% formic acid as ion-pairing modifier. Stock solutions of the 11 standard peptides (˜1 mg/ml) were prepared by dissolving each peptide in 1 ml of 0.1% FA in water or a 20% acetonitrile solution. Ten microliters of sample was injected. Individual peptides were diluted to provide ˜0.5-1 μg injection of each component using a 10 μl loop. The dead volume of the column and connecting tubings was determined by injecting a non-retained compound (water) and measuring the elution time of the negative peak at a 150 μL/min flow rate. Retention factors for isocratic elution were calculated using the formula: k=(tR−t0)/t0c; where tR is the retention time, t0 is the system (column and tubings) dead time, and t0c is the column dead time. Additional details of measuring S-values via constructing log k vs. φ plots are provided elsewhere.^24 The nano-LC MS/MS experiments were conducted using splitless Tempo LC system (Eksigent, Dublin, Calif.) with 20 μL sample injection via a 300 μm×5 mm PepMap100 (Dionex, Sunnyvale, Calif.) trap-column and a 100 μm×200 mm analytical column packed with 5 μm Luna C18(2) (Phenomenex, Torrance, Calif.). Tryptic digests of the mixtures were spiked with calibrating peptides (see Table 1) as described above, injected on the trap-column using buffer A as a carrier and separated using 0.1875, 0.375 and 0.75 percent acetonitrile per minute linear gradients starting from 0.5% acetonitrile at 500 nL/min flow rate. The composition of both eluents A and B was identical to one described above for normal-flow system. Gradient programs consisted of a 0.5-40% linear increase of buffer B in 213.2, 106.6 and 53.3 minutes, respectively. After each run the gradient columns were washed with 80% B for 3 minutes and equilibrated with the starting A:B ratio for 18 minutes.
Mass spectrometry. A QStar Elite mass spectrometer (Applied Biosystems, Foster City, Calif.) equipped with a MicrolonSpray II source was used in standard MS/MS information dependent acquisition (IDA) mode for LC-ESI analyses. Protein identification was performed using Protein Pilot 3.0 (Applied Biosystems, Foster City, Calif.) with a restricted database containing target protein sequences and the sequences of standard peptides. Retention times of identified species (peak maxima) were assigned manually.
These two ways of measurement have been combined to provide a highly accurate and fast way of determining S for an extensive sets of peptides (see FIG. 3). First, precise isocratic measurement of S is performed in normal flow conditions with UV detection for a set of synthetic “S-calibrating” peptides. […]

| Substance | Slope (experimental) |
| --- | --- |
| EGFGHLSPTGNTEFWLGNEK | 36.558 |
| EKYYGYTGAFR | 34.957 |
| ELPDPQESIQR | 34.299 |
| ENFEVLCK | 27.436 |
| ENVLR | 31.531 |
| EPISVSSQQMLK | 33.2 |
| EPYFGYSGAFK | 28.713 |
| ESGLYFIRPLK | 30.232 |
| ESPQTHYYAVAVVK | 36.262 |
| ETTVFENLPEK | 29.323 |
| ETTVFENLPEKADR | 34.533 |
| ETYGDMADCCEK | 36.36 |
| EYEATLEECCAK | 35.459 |
| FCLFK [tryptic peptide detected in the model peptide mixture] | 21.68 |
| FFSASCVPCIDR | 32.333 |
| FKDLGEEHFK | 38.336 |
| FLQEIYNSNSQK | 30.666 |
| FNSANDDNVTQVR | 38.415 |
| FPTIPLSR | 27.325 |
| FSTVAGESGSADTVRDPR | 44.208 |
| GDSVSQGTGLAPGSPR | 38.571 |
| GGWTVIQNR | 26.957 |
| GLIDEVDQDFTSR | 30.089 |
| GSNFQLDQLQGR | 30.314 |
| GYLAVAVVK | 27.811 |
| HLVDEPQNLIK | 35.894 |

| Substance | Slope (experimental) |
| --- | --- |
| IEILR | 24.216 |
| IETMR | 37.108 |
| IHLISTQSTIPYVLR | 35.386 |
| IIPLNR | 28.596 |
| ILESGPFVSCVK | 29.323 |
| ILESGPFVSCVKK | 34.299 |
| ILNKQQDDFGK | 40.011 |
| IPSKVDSALYLGSR | 35.773 |
| IQALLDK | 26.395 |
| IQALLDKYNEEKPK | 40.311 |
| IQALLDKYNEEKPKN | 40.038 |
| IQLEDWNGR | 27.849 |
| IRPYFPEQ | 28.791 |
| ISQLTNMGPTK | 33.29 |
| IVNLR | 29.724 |
| KDMDKVETFLR | 34.768 |
| KEEAPSLRPVPPPISGGGYR | 42.646 |
| KKEEAPSLRPVPPPISGGGYR | 44.873 |
| KLGAPSITCVR | 37.615 |
| KNWIQYK | 31.919 |
| KPVTDAENCHLAR | 48.023 |
| KPVTEAQSCHLAVAPNHAVVSR | 49.479 |
| KTYDSYLGDDYVR | 35.968 |
| KVIEQVQR | 43.582 |
| KVPQVSTPTLVEVSR | 37.64 |
| KYAAELHLVHWNTK | 39.205 |

| Substance | Slope (experimental) |
| --- | --- |
| LAGGGSASSSAHAAAFR | 44.118 |
| LAGGSASSADAAFR | 34.509 |
| LAGGSASSAHAAFR | 42.588 |
| LAGSASADAFR | 32.092 |
| LAGSASAHAFR | 40.64 |
| LAHEDPDYGLR | 36.832 |
| LASAADFR | 29.663 |
| LASAAHFR | 38.571 |
| LAVAAHFR | 34.392 |
| LCALCAGDDQGLDK | 33.517 |
| LCENIAGHLK | 37.285 |
| LCQLCAGK | 34.229 |
| LCVLHEK | 34.16 |
| LDGSLDFK | 25.689 |
| LESDVSTQMEYCR | 35.968 |
| LFAYPDTHR | 31.897 |
| LGAPSITCVR | 32.708 |
| LGEYGFQNALIVR | 29.764 |
| LGPNYLQIPVNCPYR | 32.953 |
| LKECCDKPLLEK | 42.82 |
| LKPDPNTLCDEFK | 36.757 |
| LKPDPNTLCDEFKADEK | 41.815 |
| LLEACTFHKP | 36.237 |
| LLGGGSLSSSLDAAAFR | 32.333 |
| LLGGGSLSSSLHAAAFR | 35.968 |
| LLGGSLSSLDAAFR | 30.604 |

| Substance | Slope (experimental) |
| --- | --- |
| LLGGSLSSLHAAFR | 34.021 |
| LLGSLSLDAFR | 28.402 |
| LLGSLSLHAFR | 31.94 |
| LLHAAHFR | 39.794 |
| LLHLAHFR | 33.837 |
| LLHLLHFR | 31.51 |
| LLIEMEDWK | 26.865 |
| LLIEMEDWKGDK | 30.791 |
| LLLGGDFR | 22.643 |
| LLLLDFR | 23.297 |
| LLLLLDFR | 22.983 |
| LLSAADFR | 25.969 |
| LLSAAHFR | 32.998 |
| LLSLADFR | 25.239 |
| LLSLAHFR | 29.303 |
| LLSLLDFR | 24.464 |
| LLSLLHFR | 28.039 |
| LLVAAHFR | 31.212 |
| LLVLAHFR | 28.115 |
| LLVLLHFR | 27.548 |
| LNELR | 32.443 |
| LNSLTVGPR | 30.791 |
| LQDTLVR | 29.045 |
| LRDSLFNYQK | 31.66 |

same assay, conditions: experimental S, LC-MS runs of model peptide mixture, formic acid

| Substance | Slope (experimental) |
| --- | --- |
| ELLIDNEK | 25.018 |
| ESKPPDSSKDECMVK | 48.845 |
| ETGWPFCSDEDWNTK | 29.105 |
| FDEFFSAGCAPGSPR | 28.654 |
| FYTEDGNVVOLVGNNTPIFFIR (FYTEDGNWDLVGNNTPIFFIR) | 31.467 |
| GACLLPK | 25.811 |
| GAGAFGYFEVTHDITR | 33.608 |
| GDKELLIDNEK | 32.311 |
| GDKVTALYEGFTVQNEANK | 35.1 |
| GEADALNLDGGYIYTAGK | 31.382 |
| GEGENQCACSSR [moderately sized, hydrophilic tryptic species of the model peptide mixture] | 54.005 |
| GNLDDFFHR | 26.957 |
| GRQNQVQDNENVVNEYSSHLEK | 42.444 |
| GTGKECVPNSNER | 48.911 |
| HMDGYGSHTFK | 41.758 |
| HQLYIDETVK | 34.369 |
| HSTVFDNLPNPEDR | 34.439 |

| Substance | Slope (experimental) |
| --- | --- |
| HSTVFDNLPNPEDRK | 36.807 |
| INLLQK | 24.664 |
| KANEGLTWNSLK | 31.085 |
| KANEGLTWNSLKDK | 35.507 |
| KENFEVLCK | 27.567 |
| KFWGK | 27.604 |
| KGSNFQLDQLQGR | 33.883 |
| KNYELLCGDNTR | 33.631 |
| KPPDADGCLHADPDLGVLCPTGCK | 40.448 |
| KQTALVELLK | 27.642 |
| KYCGVPGEYWLGNDR | 33.065 |
| LAGGGSASSSADAAAFR | 35.894 |
| LAIGEGQQHQLGGAK | 39.74 |
| LGGGGGGDFR | 31.043 |
| LLCLDGTR | 25.325 |
| LLGGGGDFR | 25.846 |

same assay, conditions: model peptide mixture (tryptic digest of bovine proteins), 0.75 and 0.1875% acetonitrile per minute gradients, formic acid, S from Δ vs. S curve of S-calibrating peptides

| Substance | experimental S-value |
| --- | --- |
| FCLFK [tryptic peptide detected in the model peptide mixture] | 21.7 |
| GEGENQCACSSR [moderately sized, hydrophilic tryptic species of the model peptide mixture] | 54.1 and 51.7 |
| KPVTEAQSCHLAVAPNHAWSR (KPVTEAQSCHLAVAPNHAVVSR) [tryptic peptide of the model peptide mixture, 5 positively charged groups] | 49.5 |
